# From the DeepSol protein solubility set
# Assay: soluble on expression in E. coli; label from the status in PepcDB or PDB records
row,Sequence,soluble on expression in E. coli
1,IGYWHYDADTDTATWSKGLFKILGLPPSNVALNYSSFLDLVHPNDKAGLKNVVEKALKEKEDYDYELRVRNGDNDYKWYRTIARANPHK,not soluble
2,MAHHHHHHMAVSINSQLKYVVNQAASVEADMNCVERVQHYTSNIEHEDLMEEIDEAIRALEKNDKKRRERKGDPITPAGITHDDDDTSTATVSVPLLEESHASDASPELSYSPADNNNHNDDNGRRENVAAGSLEFRDVTMRYRAGLPHVLCGLTFTIPAGQKVGVIGRTGSGKSSLLLTLLRVVDIEDGQIVLSGRPIRSYSLRALRQLFSMIPQDPLLFNGKVRENLDPLNVCSDAQVREAIRLVGMEDRLAAETDPLQCPVEEGGANFSVGQRQLLCMARTLLRRGCSFILMDEATANVDPTLDKQIQHVVTHVFAGHTVITIAHRLHTLATYDVILMMEEGRVVEMGSPYDLVRSADTRFAQMVRSLGESAMQEFMASTQAPTR,not soluble
3,ATYAAASSALVPRGSHMYAPKLQGPVAVYTWEGNQVNITCEVFAYPSATISWFRDGQLLPSSNYSNIKIYNTPSASYLEVTPDSENDFGNYNCTAVNRIGQESLEFILVQADTPSSPSIDQVEPYSSTAQVQFDEPEATGGVPILKYKAEWRAVGEEVWHSKWYDAKEASMEGIVTIVGLKPETTYAVRLAALNGKGLGEISAASEFKTQPVQGE,soluble
4,MGSDKIHHHHHHAQNFSDYFEDKTLRADYIFTGDAKKQEVYLDELSSLPQWAGRKHHLAELPLAGNGEITMKDKATGETIYRTSFSSLFQEWVSEEEASRIKRGFENSFLLPYPKKEAVVTISLKDVYHKVNASLTHEIIPNDILIHQRGTNHITPHRYLLQNGNAADCIDVAIMAEGYTEKEMDIFYKDAQTACDALFSHEPFKKLKDKFNIVAVASPSEDSGVSIPGQGKWKSTAVSSHFNTFYSDRYLTTSRVKSIHNWLAGIPYEHIIILANTDTYGGGGIYNSYTLTTAHHPDFQPVVVHEFGHSFGGLADEYAYTETPSPQYPYEVEPWEPNITTLIDFDSKWKDMIPEGTAIPTPVATENADLYTKVGVYEGAGYTQKGLYRPTTECRMKINEAPAFCPVCQRALERLINFYTAK,not soluble
5,MKEFVHDYLAASVENEEEGGRMRWYPWHSAEYRFNHILNVVDIATKIARKEGANVDVTRVAALFHDIAKLEAEQDLHAEAGARIAREYLRAHGDYPESFIEQVCSAVEVHSYQGSLDDLPLEVQCLIEADILDKVGANGTALMLLRMGYESRTHMDAAEMVDRVIERGEDARERVQSDTAESLVHQRLKRTRWFQEWLTMEVAEMAVEDDLDDVATGMGDSLEHHHHHH,soluble
6,MKLNCCGVTQIADRVERLAHTHGKTWHTWHTDQDKTLPLGVPQLMMGFTADGQADPAMQQQRNQRLGIVKSAIKAQRADIQIPKADPGADGWQHGKTIQINDPTGHLHGPATSPTPQNTNSRSTQLEHHHHHH,not soluble
7,METDPDYSMVLLTENFPPYNMAINGKNFAQEDNIDGIAVDIVREMFKRAGIKYSLTLRFPWDRIYKLALEKPGYGVFVTARLAEREDKFKWVGPIGPDDWVLLAKGDSPITLGSLDEAKKYRIGAYKGDAIAEFLGKNGFEADLALRDQENAQKLVKGQIDLWASGDPAGRYLAKQEGVTGLKTVLRFNSDQLYLALNRETPDEVVQKLQAALDGMRKEGFVEDILNSYLLEHHHHHH,soluble
8,MGSSHHHHHHSSGLVPRGSHMILTLTLNPSVDISYPLTALKLDDVNRVQEVSKTAGGKGLNVTRVLAQVGEPVLASGFIGGELGQFIAKKLDHADIKHAFYNIKGETRNCIAILHEGQQTEILEQGPEIDNQEAAGFIKHFEQLLEKVEAVAISGSLPKGLNQDYYAQIIERCQNKGVPVILDCSGATLQTVLENPYKPTVIKPNISELYQLLNQPLDESLESLKQAVSQPLFEGIEWIIVSLGAQGAFAKHNHTFYRVNIPTISVLNPVGSGDSTVAGITSAILNHENDHDLLKKANTLGMLNAQEAQTGYVNLNNYDDLFNQIEVLEV,soluble
9,MGSDKIHHHHHHMQTFLKGKRVGYWLSEKKIKKLNFQAFAELCRKRGMEVVQLNLSRPIEEQGPLDVIIHKLTDVILEADQNDSQSLELVHRFQEYIDAHPETIVLDPLPAIRTLLDRSKSYELIRKIEAYMEDDRICSPPFMELTSLCGDDTMRLLEKNGLTFPFICKTRVAHGTNSHEMAIVFNQEGLNAIQPPCVVQNFINHNAVLYKVFVVGESYTVVQRPSLKNFSAGTSDRESIFFNSHNVSKPESSSVLTELDKIEGVFERPSDEVIRELSRALRQALGVSLFGIDIIINNQTGQHAVIDINAFPGYEGVSEFFTDLLNHIATVLQGQSTAMAATGDVAL,soluble
10,MAHHHHHHMFISEDLDPEALKNEANIKWKEVIGKGNMEEANIIWRQALKECIKYSMRGIPTNKNRDMQISLRLNLSLYHYKKKEYSDCINQCNIIIDNLLNLEEMLQYYNMGDEEENKKESNNNDGDKGDHISDDKGDHMSDDKGDHKDDDKGDHMSDDKGDHKDDDKGDHMSDDKGDHKDDDKGDHMSDDKDKSNVNLREKKYIIKKDILIKIFLRRASSFLCLQEFNKCNEDLGIIKKLENNDAEAATLEKRMIIEKKDYERKQKELYKKMCNSK,not soluble
11,MEIRLFSGSAHPDLARRVAEALGVPLGKALVDRFPDGEVRVRLLESVRGEDVYLIQPTCPPVNDHLMELLLLADAARRSSAGRINAVIPYFGYARQDKQTEGREPISARLVAGLLERVGVERVIAIDLHAPQIQGFFDIPVDHLSAVRLFARYLREKGYVENAVVVSPDAGRAEEARRLAERLGLPLAMLAKRRLGPRETSVTYVIGDVEGKRPILVDDIVSTGGTIRRGVEALLQAGALPEVVVMATHAVLVGGAKENLAHPAVREVVFTDTIPLKDGGYTVLSTAELLAQAIRHVHTNQSVSALI,soluble
12,MAHHHHHHMLQEYTGERCVSYRVNPQRGGCVETVAEVDAQDFFTEPGGLVTSPTTPSTPAGSTSARQARRRVVTTLERILLPDGYPSSVTEDLLPFALWDLAQVLAKNVTATLSTRAVLLGVGVGESKADLTSATLSWMMQDGTRMIGSVVFAPLIPQGLECRAKTWQLVADFTTDIANLLELCAPWLPGGQTTFRVVLVAASVVKALGSVCRNCTRASFTRHFALRNNAADIAAKASTRSSVGSFIGLVLGVAVAYIVPATSRSLNLVVFALGSVLHIFASYRSVRGVQLKHLNAPRLEWCLVQYSLFEAKVLIASKKDSGPLSVMPILDVSPRSANAAERLLILPSLRAVPPPSDSFYDSVRGFLCRYCFPPTLTLRIHCGASLFRLLQHQRGLTTRCKHELVQQVESALASRGIALLVDDVDMTYYVILPEYFTVEGVPAMWVRYKRQYGDDLTCMEAKQRQSAAARAAQRRQDGAASLSPSGAAVAAPDAGHGLDEAGRRAAQAEAELERLQKERVVVPPHILPLAYRQLWAYFYAFMHYRAVRLRREGPLTHAKDVLEGLHKNRSLECQRLHIITALRADGTLEAGHSDASDVPHSPAQFEEITSPASTTSDVPLERRVVPALATRAGGDDGDDGDNTAAPSYDGLHPQFIEFVRALRMTGWELDELLVGNEGYTTVVHYL,not soluble
13,MSFSADEVRFLAQSEREIAEMTADLDLSKKSMISDVATLRKHFGDFGRAVAELAGARRSAVGKLPQDWLMCQESAQQTTPPAVSAERARRLKTALGENVIVHDVTCSIGTEGHELIDAGLRYLGSDLDFSRTLMAAHNLQGKNALIFRADALQPASRGADVIIADPARRAGGKRITNPAQLLPPLPSLLDAWINQPLAVKCAPGLDFSEWPGLVSIASVDGGVKEACLYTTDLADGETREAIVIKDGLIDRITNFEDDATGQDLAAAPGEFIIDPDGAIVRAGLVRHYAVREQLWMLDERIAYLTGNRIPEGTSGFRFIEEVPLKKLKSAMAAHDAGAVEILVRGVDVDPDQLRKRLQLKGTKAMSVVITRIGSRGVALICGPRERA,not soluble
14,MGSDKIHHHHHHMATQRGTTAPPQTGSEQTGSVAGAGNARASLGVDGAVRLATSSVTTQSYAREFARLFNVDTAHTLTTTSLKTAQLTATHMCSSVHGLGKSTPLPTEDAYILSLQLQHSGGAELWKRGRRVPTEPYAPGSIMLGHLSDEPVANLPDPFECILFHIPRPAFDELCGLSALPPVGELDDVNRTIDPVLHHLGLALVPAMADPQLAGSLFFDHVAHAMYERLATTYGRFRGTLPPRGRVLSKTQERIAKELLVADLLVEPPLSDIALACGLSVRQFVDAFRSTTGMPPFRWLRAYRIERAKELLRRTSFSLAEIGAACGFADQSHFTRTFSAATGTTPGDWRRACGA,not soluble
15,MSSTAAKKDVKSSAVPVTAVVEKKEFEEEEFEEFPVQEWAERAEGEEDDVNVWEDNWDDETHESEFSKQLKEELRKSGHQVA,not soluble
16,MSLNENLQELIPTKLAAAIANPLFPAVDSQLRSGRHIGQEYLDNFAFLADFQNELDMFYRRYNVELIRAPEGFFYLRPKATTLIARSVLSELEMLVGKVLCYLYLSPERLAQQGIFSVQEVYDELLNLADESKLLKAVNQRSSGSDLDKQKLAEKVRAAVNRLRRLGMIHTVGEQNSGKFTISESVFRFGAEVRSGDDPREAQLRLIRDGEAATPDSLSQEKSAVKNDEEIEDELDEGLGEEEEGHHHHHH,soluble
17,MGSDKIHHHHHHMMGGFTVLIEMHCHTSEYSSCSGVAAVNLVRQVAAKNLQGIVLTDHHHLWEASELADVRRRAEVPDHFVILAGQEVTTPELGDVLVFGADATIERGTPLAEIRRRYPAAALVWAHPYRRGKRPTPEQLCHPLLDGVEIFNSNHTVRENSQGLQDWHRDRFTAIAGTDTHGENYAGLYPTQFDHAVKTIADLAAEIRHGRCRPFLKEIPRSGANSQVIEVTIGTKGADEVRERLIIKEIGTRHKWRSAERAFRIMGEIVGHGFDEGKFRVPRPIDEDEASMTLIEQGLRGKSLFDKLLTAEPEDGRAYLSLAAGWLARLHGCRLRITPRDEFLVREDERLARYLERFTAIGHRHTRKVQEILAAVAAEERRVVAEGSAYMVQGHGDFHPKNVFVGQDVMENRSTLFVAAIDFESSYVLPRAFDVGCFLAQFRNQFYHYGEIVNAYPEELFLEAYLRDSDQVEPDFLRQVELFRARTNMSIAAYLVKVGLGDSEDLWRVIVEAERSISNLSTGPAG,not soluble
18,SARLPKLAVFDLDYTLWPFWVDTHVDPPFHKSSDGTVRDRRGQDVRLYPEVPEVLKRLQSLGVPGAAASRTSEIEGANQLLELFDLFRCYLHSHPEWNESSNSKSRVRDICEGPNWAFEVQP,soluble
19,MYRLERTQRLPISIDEAWDFFASPDNLKKITPAYMGFDIKSGGGIPMYAGMIIKYTVRPLLGIPMTWVTEITHVEPQRFFVDEQRVGPYAIWHHQHHFKAIENGVEMTDILHYKLPFGILGNLAHPFLVKNKLEEIFNFRNKKMVELFGTYKLEHHHHHH,soluble
20,MGSDKIHHHHHHMLSRVAENLYWMARYLERTEDMARLINATTLLLLDLPQGAEFGWDILLQVTGDAKLYMEHYGTPEEGRIMRFLIADERNPNSVMAAIHQARENCRTFRDLLPAEFWERLNTLFLFVREHAGTSSDSRHARYAFLNEVISRRHALVGLLISSMSQDNVYQFIKLGRNMERADMTTRIVDVTSAVILPQDQGLQKTTTSSLWLGVLRALSAFEMYRRHVSVQVRSNQVVDYLLKDNKFPRSMKYCLGEMEVALAYLPNAGIPAEAVRRARRRLDALKLANLRPDLLHEYLDQAQKDLAMVHRTIHGTYFARDDTGFDGVPSGLLLNAAQA,not soluble
